For one assay, the target named is T1, Notch 3 EGF domains 5-12 (human, UniProt Q9UM47 197-505).
T1 construct: domain: EGF domains 5-12; the other passages say only 'Notch 3'
T1 sequence (looked up): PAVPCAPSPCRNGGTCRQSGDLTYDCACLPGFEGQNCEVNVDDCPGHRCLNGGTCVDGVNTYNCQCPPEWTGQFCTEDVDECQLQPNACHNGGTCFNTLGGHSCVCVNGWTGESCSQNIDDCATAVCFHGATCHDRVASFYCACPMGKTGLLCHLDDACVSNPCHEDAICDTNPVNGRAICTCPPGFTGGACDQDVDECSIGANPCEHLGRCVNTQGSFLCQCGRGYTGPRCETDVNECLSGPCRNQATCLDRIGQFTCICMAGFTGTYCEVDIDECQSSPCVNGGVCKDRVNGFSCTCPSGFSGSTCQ
The assay can be described thus: SPR, Notch on streptavidin chip, DLL4 flowed. On the technique in general: SPR reads the build-up and loss of mass on a sensor chip optically.

A further assay addresses T2, Notch1 EGF domains 6-13 (human, UniProt P46531 218-526).
T2 construct: domain: EGF domains 6-13; Immobilised on a streptavidin sensor chip; the other passages say only 'Notch 1'
As to the kind of experiment: SPR, Notch immobilised, DLL4 flowed. The procedure:
Binding affinities between DLL4 variants and Notch receptor subtypes were determined by surface plasmon resonance (SPR) (FIG. 7). Notch1 EGF domains 6-13, Notch2, EGF domains 6-13, or Notch 3 EGF domains 5-12 were immobilized on a sensor chip and various concentrations of DLL4 ligands were injected over the surface. A co-culture assay was used to monitor the inhibition of Notch signaling by DLL4.v3 (FIG. 8). A fluorescent Notch1 reporter cell line (CHO^N1) was co-cultured with 293T cells expressing wild-type human DLL4 (293TDLL4) in 96-well plates to activate signaling. This value was normalized to 100% Notch1 activation. A reduction in Notch1 activation was observed upon the addition of increasing concentrations of DLL4.v3 (20 nM, 200 nM, 2000 nM) to the co-cultures.

B1: wildtype (WT) human DLL4 (ligand)
chain: SGVFQLQLQEFINERGVLASGRPCEPGCRTFFRVCLKHFQAVVSPGPCTFGTVSTPVLGTNSFAVRDDSSGGGRNPLQLPFNFTWPGTFSLIIEAWHAPGDDLRPEALPPDALISKIAIQGSLAVGQNWLLDEQTSTLTRLRYSYRVICSDNYYGDNCSRLCKKRNDHFGHYVCQPDGNLSCLPGWTGEYCQQPICLSGCHEQNGYCSKPAECLCRPGWQGRLCNECIPHNGCRHGTCSTPWQCTCDEGWGGLFCDQDLNYCTHHSPCKNGATCSNSGQRSYTCTCRPGYTGVDCE
notes: Soluble protein flowed over immobilised Notch in SPR; also called wild-type DLL4
As to B1, the binding result with Notch 3 EGF domains 5-12 and with Notch1 EGF domains 6-13 was “binds” in each case.
